Source: US20120021988A1, “METHODS FOR TREATING IMMUNE THROMBOCYTOPENIA” (priority 2007, published 2012)

Legend:
FcγI = FcγI (UniProt P12314); test: reverse ELISA (repeat), PAP on Fcγ1-coated plate without competitor
FcγIIb [1] = molecular target: FcγIIb (UniProt P31994); test: reverse ELISA, PAP on FcγIIb-coated plate without competitor
[2] = molecular target: human C1q (Quidel Corp.) (human) (UniProt P02745); test: reverse ELISA, PAP on C1q-coated plate without competitor
FcγIIb [3] = molecular target: FcγIIb (UniProt P31994); test: reverse ELISA (repeat), PAP on FcγIIb/c-coated plate without competitor
FcγIIIa = FcγIIIa (UniProt P08637); test: reverse ELISA, PAP on FcγIIIa-coated plate without competitor
FcγIIa (R131 allele) = FcγIIa (R131 allele) (UniProt P12318); test: reverse ELISA, PAP on FcγIIa (R131 allele)-coated plate without competitor
[4] = molecular target: FcγIIa (His 131 allele aka H161) (UniProt P12318); test: reverse ELISA (repeat), PAP on FcγIIa (H131 allele)-coated plate without competitor
FCγIIIb (NA2) = FCγIIIb (NA2) (UniProt O75015); test: reverse ELISA (repeat), PAP on FcγIIIb (NA2)-coated plate without competitor
[5] = molecular target: PAP complex: preformed immune complex of peroxidase and rabbit anti-peroxidase IgG (horseradish) (UniProt P00433); test: reverse ELISA competition (repeat): PAP pre-incubated with peptide, then on plate coated with FcγIIIb (NA2); signal is PAP left bound to the receptor
[6] = molecular target: PAP complex: preformed immune complex of peroxidase and rabbit anti-peroxidase IgG (horseradish) (UniProt P00433); test: reverse ELISA competition (repeat): inhibition by the peptide of PAP binding to immobilised FcγIIIb (NA2)
[7] = molecular target: PAP complex: preformed immune complex of peroxidase and rabbit anti-peroxidase IgG (horseradish) (UniProt P00433); test: reverse ELISA competition (repeat): PAP pre-incubated with peptide, then on plate coated with Fcγ1; signal is PAP left bound to the receptor
[8] = molecular target: PAP complex: preformed immune complex of peroxidase and rabbit anti-peroxidase IgG (horseradish) (UniProt P00433); test: reverse ELISA competition: PAP pre-incubated with peptide, then on plate coated with FcγIIa (R131 allele); signal is PAP left bound to the receptor
[9] = molecular target: PAP complex: preformed immune complex of peroxidase and rabbit anti-peroxidase IgG (horseradish) (UniProt P00433); test: reverse ELISA competition (repeat): inhibition by the peptide of PAP binding to immobilised FcγIIb/c
[10] = molecular target: PAP complex: preformed immune complex of peroxidase and rabbit anti-peroxidase IgG (horseradish) (UniProt P00433); test: reverse ELISA competition (repeat): inhibition by the peptide of PAP binding to immobilised FcγIIa (H131 allele)
[11] = molecular target: PAP complex: preformed immune complex of peroxidase and rabbit anti-peroxidase IgG (horseradish) (UniProt P00433); test: reverse ELISA competition (repeat): PAP pre-incubated with peptide, then on plate coated with FcγIIa (H131 allele); signal is PAP left bound to the receptor
[12] = molecular target: PAP complex: preformed immune complex of peroxidase and rabbit anti-peroxidase IgG (horseradish) (UniProt P00433); test: reverse ELISA competition: PAP pre-incubated with peptide, then on plate coated with FcγIIb; signal is PAP left bound to the receptor
[13] = molecular target: PAP complex: preformed immune complex of peroxidase and rabbit anti-peroxidase IgG (horseradish) (UniProt P00433); test: reverse ELISA competition: PAP pre-incubated with peptide, then on C1q-coated plate; signal is PAP left bound to immobilised human C1q (lower = more inhibition)
[14] = molecular target: PAP complex: preformed immune complex of peroxidase and rabbit anti-peroxidase IgG (horseradish) (UniProt P00433); test: reverse ELISA competition (repeat): PAP pre-incubated with peptide, then on plate coated with FcγIIb/c; signal is PAP left bound to the receptor
[15] = molecular target: PAP complex: preformed immune complex of peroxidase and rabbit anti-peroxidase IgG (horseradish) (UniProt P00433); test: reverse ELISA competition (repeat): inhibition by the peptide of PAP binding to immobilised Fcγ1
[16] = molecular target: PAP complex: preformed immune complex of peroxidase and rabbit anti-peroxidase IgG (horseradish) (UniProt P00433); test: reverse ELISA competition: PAP pre-incubated with peptide, then on plate coated with FcγIIIa; signal is PAP left bound to the receptor

UniProt P31994, sequence (P31994 46-217 limits assumed): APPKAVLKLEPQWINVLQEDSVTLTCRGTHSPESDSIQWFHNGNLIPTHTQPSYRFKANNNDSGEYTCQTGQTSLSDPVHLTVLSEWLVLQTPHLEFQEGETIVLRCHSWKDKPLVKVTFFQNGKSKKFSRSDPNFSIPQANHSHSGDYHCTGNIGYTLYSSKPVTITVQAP
UniProt P12314, sequence (P12314 16-288 limits assumed): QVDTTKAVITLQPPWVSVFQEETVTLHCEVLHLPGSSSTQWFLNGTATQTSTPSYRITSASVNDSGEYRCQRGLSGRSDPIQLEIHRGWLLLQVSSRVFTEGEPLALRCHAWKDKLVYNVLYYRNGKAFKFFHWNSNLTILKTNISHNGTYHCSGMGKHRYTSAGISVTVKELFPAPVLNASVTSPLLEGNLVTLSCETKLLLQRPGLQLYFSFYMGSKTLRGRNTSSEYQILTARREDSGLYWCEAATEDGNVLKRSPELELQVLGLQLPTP
UniProt P08637, sequence (P08637 17-208 limits assumed): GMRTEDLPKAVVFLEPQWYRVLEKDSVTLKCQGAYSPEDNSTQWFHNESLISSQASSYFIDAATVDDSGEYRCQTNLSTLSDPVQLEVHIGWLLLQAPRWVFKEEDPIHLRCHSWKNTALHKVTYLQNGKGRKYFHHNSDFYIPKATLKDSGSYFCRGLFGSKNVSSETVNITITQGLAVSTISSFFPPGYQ
UniProt P02745, sequence (P02745 23-245 limits assumed, chain 1 of 3): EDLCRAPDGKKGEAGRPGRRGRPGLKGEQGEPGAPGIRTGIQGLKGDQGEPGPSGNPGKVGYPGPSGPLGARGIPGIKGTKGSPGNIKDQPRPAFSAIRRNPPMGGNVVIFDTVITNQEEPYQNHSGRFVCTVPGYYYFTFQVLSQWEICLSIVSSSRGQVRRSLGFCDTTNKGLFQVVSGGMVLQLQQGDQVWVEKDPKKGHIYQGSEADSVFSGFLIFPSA
UniProt P02745, sequence (P02746 28-253 limits assumed, chain 2 of 3, further chain): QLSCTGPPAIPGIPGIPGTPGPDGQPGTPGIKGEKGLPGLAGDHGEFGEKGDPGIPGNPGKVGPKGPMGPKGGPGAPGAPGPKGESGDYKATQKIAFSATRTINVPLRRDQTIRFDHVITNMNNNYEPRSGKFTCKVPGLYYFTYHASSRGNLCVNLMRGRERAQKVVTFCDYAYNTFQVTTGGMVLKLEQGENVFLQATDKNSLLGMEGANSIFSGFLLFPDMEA
UniProt P02745, sequence (P02747 29-245 limits assumed, chain 3 of 3, further chain): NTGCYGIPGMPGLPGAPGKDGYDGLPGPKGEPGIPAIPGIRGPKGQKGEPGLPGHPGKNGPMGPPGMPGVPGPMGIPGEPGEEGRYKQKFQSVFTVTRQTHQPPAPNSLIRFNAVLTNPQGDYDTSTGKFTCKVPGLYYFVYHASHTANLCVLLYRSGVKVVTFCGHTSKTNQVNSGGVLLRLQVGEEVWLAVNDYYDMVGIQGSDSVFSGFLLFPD
UniProt O75015, sequence (O75015 17-200 N65S limits assumed): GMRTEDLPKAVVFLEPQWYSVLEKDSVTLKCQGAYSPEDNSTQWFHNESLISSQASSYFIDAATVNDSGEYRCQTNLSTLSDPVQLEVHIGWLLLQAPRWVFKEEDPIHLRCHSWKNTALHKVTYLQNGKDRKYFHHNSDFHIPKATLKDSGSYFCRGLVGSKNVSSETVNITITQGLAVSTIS

OD 405 nm (FcγI) [OD 405 nm]	OD405 (FcγIIb [1]) [OD405]	OD 405 nm [2] [OD 405 nm]	OD 405 nm (FcγIIb [3]) [OD 405 nm]	OD405 (FcγIIIa) [OD405]	OD405 (FcγIIa (R131 allele)) [OD405]	OD 405 nm [4] [OD 405 nm]	OD 405 nm (FCγIIIb (NA2)) [OD 405 nm]	OD 405 nm [5] [OD 405 nm]	% inhibition of IC binding [6] [%]	OD 405 nm [7] [OD 405 nm]	OD405 [8] [OD405]	% inhibition of IC binding [9] [%]	% inhibition of IC binding [10] [%]	OD 405 nm [11] [OD 405 nm]	OD405 [12] [OD405]	OD 405 nm [13] [OD 405 nm]	OD 405 nm [14] [OD 405 nm]	% inhibition of IC binding [15] [%]	OD405 [16] [OD405]	Molecule
2.33	1.39	2.35	2.22	1.59	1.6	3.51	3.06	–	–	–	–	–	–	–	–	–	–	–	–	PAP complex: preformed immune complex of peroxidase and rabbit anti-peroxidase IgG (from UniProt P00433 31-338)
–	–	–	–	–	–	–	–	0.266	91	0.264	0.509	88	94	0.209	0.496	0.389	0.266	89	0.67	APPDCAWHLGELVWCT [Peptide … (SEQ ID NO:20)]
